According to patent US20230277625A1 (SIMCHA IL 18, published 2023):

Experiments:
[1] = target: T1, Human IL-18Rα ectodomain (amino acids 19-329), biotinylated (human, UniProt Q13478 19-329, biotin on the AviTag (BirA ligase)); assay: SPR; average of 2 studies
T1 construct: range 19-329; Secreted from insect cells (gp67 signal peptide removed); also called hIL-18Rα; hIL18Rα
T1 sequence: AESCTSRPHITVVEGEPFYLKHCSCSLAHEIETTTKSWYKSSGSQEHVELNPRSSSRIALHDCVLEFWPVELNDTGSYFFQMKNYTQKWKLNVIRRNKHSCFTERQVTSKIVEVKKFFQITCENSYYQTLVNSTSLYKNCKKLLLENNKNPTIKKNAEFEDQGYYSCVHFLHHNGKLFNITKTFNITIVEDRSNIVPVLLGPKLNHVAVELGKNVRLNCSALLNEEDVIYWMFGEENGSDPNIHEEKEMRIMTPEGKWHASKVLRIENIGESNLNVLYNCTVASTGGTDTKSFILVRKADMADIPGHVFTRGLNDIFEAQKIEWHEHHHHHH

[2] = target: T2, Human IL-18BP (amino acids 31-194), biotinylated (human, UniProt O95998 31-194, biotin on the AviTag (BirA ligase) where used biotinylated); assay: SPR (Biacore T100), IL-18BP captured via biotin, IL-18 as analyte; SPR, recombinant soluble variant, biotinylated hIL-18BP on the chip
T2 construct: Soluble decoy receptor; also called hIL-18BP; recombinant IL-18BP
T2 sequence: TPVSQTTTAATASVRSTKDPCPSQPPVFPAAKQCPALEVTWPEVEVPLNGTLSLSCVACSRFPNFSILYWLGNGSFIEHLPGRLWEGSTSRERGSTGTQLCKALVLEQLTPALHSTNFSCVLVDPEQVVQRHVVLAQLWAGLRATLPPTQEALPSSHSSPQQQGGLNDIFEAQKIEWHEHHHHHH
Method: (§1) Experiments were conducted using a Biacore T100 and carried out at 25° C. Biotinylated IL-18Rα or IL-18BP were immobilized onto a Biacore biotin capture chip (Series S CAP sensor chip, GE Healthcare) to yield an Rmax of ˜50 RU (IL-18Rα) or ˜10 RU (IL-18BP). Measurements were made with serial dilutions of the IL-18 variants in HEPES buffered Saline-P+buffer (10 mM HEPES pH 7.4, 150 mM NaCl, 0.005% surfactant P20). The surface was regenerated by three 60-sec injections of regeneration buffer (3/4 (v/v) 8M guanidine hydrochloride with 1/4 (v/v) 1M sodium hydroxide). Experiments were performed in multiple channels simultaneously for increased observations. All data were analyzed with the Biacore T100 evaluation software version 2.0 with a 1:1 Langmuir binding model.
(§2) To additionally characterize the receptor binding activities of the DR-IL-18 variants, the cytokines were expressed recombinantly and surface plasmon resonance for IL-18Rα and IL-18BP was performed (see FIG. 5B for representative traces).

[3] = target: T2, Human IL-18BP (amino acids 31-194), …; assay: SPR; average of 2 studies; SPR, average of 2 studies
[4] = target: T2, Human IL-18BP (amino acids 31-194), …; assay: SPR; KD for IL-18BP over KD for IL-18Rα; SPR; ratio of two measured KD
Method: as §1, §2

[5] = target: T2, Human IL-18BP (amino acids 31-194), …; assay: SPR; KD(IL-18BP)/KD(IL-18Rα) normalized to WT IL-18
[6] = target: T1, Human IL-18Rα ectodomain (amino acids …); assay: SPR (Biacore T100), receptor captured via biotin, IL-18 as analyte
Method: as §1, §2

[7] = target: T2, Human IL-18BP (amino acids 31-194), …; assay: on-yeast binding isotherm (flow cytometry); members per FIG. 5A legend
Method: (§3) Individual colonies of IL-18 yeast were grown overnight at 30° C. in SDCAA liquid media and induced in SGCAA liquid media for 1 day at 20° C. IL-18 display levels on yeast were verified by flow cytometry using an anti-cMyc tag antibody (anti-myc-PE; Cell Signaling Technologies). Receptor staining with biotinylated IL-18Rα (with or without IL-18R β) or biotinylated IL-18BP was performed in PBS supplemented with 0.5% BSA and 2 mM EDTA (PBE) on ice. All analysis was performed on a Sony SA3800 flow cytometer.
as §2

[8] = target: T2, Human IL-18BP (amino acids 31-194), …; assay: SPR; KD ratio relative to WT IL-18; SPR; ratio normalized to WT
Method: as §1, §2

[9] = target: T2, Human IL-18BP (amino acids 31-194), …; assay: on-yeast binding isotherms; KD ratio relative to WT IL-18; yeast-displayed variant; ratio normalized to WT, from the 20 µM placeholder
[10] = target: T2, Human IL-18BP (amino acids 31-194), …; assay: on-yeast binding isotherms; 20 µM used for NBD; yeast-displayed variant; ratio computed with 20 µM put in for NBD
[11] = target: T3, Mouse IL-18BP (amino acids 31-194), biotinylated (mouse, UniProt Q9Z0M9 29-193, biotin on the AviTag (BirA ligase)); assay: SPR
T3 construct: also called mIL-18BP
T3 sequence: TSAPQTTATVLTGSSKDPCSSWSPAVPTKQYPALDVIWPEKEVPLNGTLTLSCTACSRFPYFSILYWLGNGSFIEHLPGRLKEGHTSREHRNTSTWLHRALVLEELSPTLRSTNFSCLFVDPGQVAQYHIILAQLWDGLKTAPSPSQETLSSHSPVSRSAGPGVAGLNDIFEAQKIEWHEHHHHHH

[12] = target: T4, Mouse IL-18Rα ectodomain (amino acids 19-329), biotinylated (mouse, UniProt Q61098 19-329, biotin on the AviTag (BirA ligase)); assay: SPR
T4 construct: range 19-329; Secreted from Expi293 cells (H7 signal peptide removed); also called mIL-18Rα; mIL18Ra
T4 sequence: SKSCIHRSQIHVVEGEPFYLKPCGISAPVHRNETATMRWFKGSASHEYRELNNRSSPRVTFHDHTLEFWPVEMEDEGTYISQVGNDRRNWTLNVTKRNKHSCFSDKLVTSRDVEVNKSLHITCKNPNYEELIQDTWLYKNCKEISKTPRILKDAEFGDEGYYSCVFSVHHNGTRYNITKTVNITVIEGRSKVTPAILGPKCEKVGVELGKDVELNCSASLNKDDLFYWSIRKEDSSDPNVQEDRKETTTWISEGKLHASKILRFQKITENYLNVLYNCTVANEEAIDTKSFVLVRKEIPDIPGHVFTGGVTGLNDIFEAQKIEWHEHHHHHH

[13] = target: T4, Mouse IL-18Rα ectodomain (amino acids …); assay: SPR (Biacore T100), receptor captured via biotin, IL-18 as analyte
How it was run: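 Biotinylated IL-18Rα or IL-18BP captured on a biotin CAP chip (Rmax ~50 RU or ~10 RU respectively), with serial dilutions of IL-18 variants as analyte. Run at 25° C in HBS-P+ (10 mM HEPES pH 7.4, 150 mM NaCl, 0.005% P20); guanidine/NaOH regeneration. KD from 1:1 Langmuir fit.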

[14] = target: T3, Mouse IL-18BP (amino acids 31-194), …; assay: SPR (Biacore T100), IL-18BP captured via biotin, IL-18 as analyte
Method: as §1

[15] = target: T3, Mouse IL-18BP (amino acids 31-194), …; assay: on-yeast binding isotherms; KD ratio relative to WT IL-18
Method: as §3

[16] = target: T3, Mouse IL-18BP (amino acids 31-194), …; assay: on-yeast binding isotherm (flow cytometry): yeast-displayed murine IL-18 variant titrated with mIL-18BP, % max
Method: as §3

[17] = target: T3, Mouse IL-18BP (amino acids 31-194), …; assay: on-yeast binding isotherms; KD for IL-18BP over KD for IL-18Rα
Method: as §3

[18] = target: T3, Mouse IL-18BP (amino acids 31-194), …; assay: on-yeast binding isotherm (flow cytometry)
How it was run: (§4)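 Yeast displaying IL-18 variants were grown at 30 °C, then induced 1 day at 20 °C, with display checked by anti-myc-PE. Cells were stained on ice with biotinylated IL-18Rα (± IL-18Rβ) or biotinylated IL-18BP in PBS/0.5% BSA/2 mM EDTA. Binding was read by flow cytometry.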

[19] = target: T4, Mouse IL-18Rα ectodomain (amino acids …); assay: on-yeast binding isotherm (flow cytometry)
How it was run: as §4

[20] = target: T3, Mouse IL-18BP (amino acids 31-194), …; assay: SPR; KD(IL-18BP)/KD(IL-18Rα) normalized to WT IL-18
[21] = target: T3, Mouse IL-18BP (amino acids 31-194), …; assay: SPR, immobilized biotinylated mIL-18BP, representative sensorgram FIG. 11B; representative sensorgram, FIG. 11B
Method: By contrast, very little binding is observed with the same variants and mIL-18BP (right). FIG. 11B provides measurement of IL-18BP binding using representative surface plasmon resonance sensor grams between immobilized biotinylated mIL-18BP and the murine DR-IL-18 variants.
as §1

[22] = target: T3, Mouse IL-18BP (amino acids 31-194), …; assay: SPR; KD ratio relative to WT IL-18
Method: as §1

[23] = target: T3, Mouse IL-18BP (amino acids 31-194), …; assay: SPR; KD for IL-18BP over KD for IL-18Rα
Method: as §1

B1: SEQ ID NO: 37 (human DR-IL-18 variant hCS4) (ligand)
chain: RFGKLESKLSVIRNLNDQVLFIDQGNRPLFEDMTDSDCRDNAPRTIFIISTYRDSQPRGKAVTISVKCEKISTLSCENKIISFKEMNPPDNIKDTKSDIIFFQRNVPGHKYKMQFESSSYEGYFLACEKERDLFKLILKKEDELGDRSIMFTVQNED
notes: Engineered variant
Question: With B1 as the binder, how does the Kd [1] read?
Answer: 7.7 nM

Question: What about the Kd [2] of the same binder?
Answer: 183 nM

Question: What about the Kd [3] of the same binder?
Answer: 121 nM

Question: And the “KD ratio IL-18BP/IL-18Rα” value [4]?
Answer: 41.8

Question: And the “IL-18 BP:Rα Dissociation Constant Ratio” value [5]?
Answer: 32200

Question: What about the Kd [6] of the same binder?
Answer: 4.38 nM

Question: What about the EC50 [7] of the same binder?
Answer: > 1000 nM

Question: And the “Dissociation Constant Ratio normalized to WT IL-18” value [8]?
Answer: 64500

Question: What about the “Dissociation Constant Ratio normalized to WT IL-18” value [9] of the same binder?
Answer: > 424

Question: And the “KD ratio IL-18BP/IL-18Rα” value [10]?
Answer: > 125

B2: Mouse Interleukin-18 (mature form), wild type (ligand)
chain: NFGRLHCTTAVIRNINDQVLFVDKRQPVFEDMTDIDQSASEPQTRLIIYMYKDSEVRGLAVTLSVKDSKMSTLSCKNKIISFEEMDPPENIDDIQSDLIFFQKRVPGHNKMEFESSLYEGHFLACQKEDDAFKLILKKKDENGDKSVMFTLTNLHQS
notes: also called mIL-18 WT; WT mIL-18
Question: Which Kd [11] does the source give for B2 here?
Answer: 0.0011 nM

Question: And the Kd [12]?
Answer: 0.6 nM

Question: What about the Kd [13] of the same binder?
Answer: 0.6 nM

Question: What about the Kd [14] of the same binder?
Answer: 0.0011 nM

Question: What about the “Dissociation Constant Ratio normalized to WT IL-18” value [15] of the same binder?
Answer: 1

Question: And the “EC50 (read off the curve)” value [16]?
Answer: ~20 nM

Question: What about the “KD ratio IL-18BP/IL-18Rα” value [17] of the same binder?
Answer: 0.188

Question: And the Kd [18]?
Answer: 2.13 nM

Question: What about the Kd [19] of the same binder?
Answer: 11.3 nM

Question: And the “IL-18 BP:Rα Dissociation Constant Ratio” value [20]?
Answer: 1

Question: And the Kd [21]?
Answer: 0.0008 nM

Question: And the “Dissociation Constant Ratio normalized to WT IL-18” value [22]?
Answer: 1

Question: What about the “KD ratio IL-18BP/IL-18Rα” value [23] of the same binder?
Answer: 0.00183
